Positions count from the first letter of the chain named.
B1: AP1: single domain antibody (sdAb) selected against Apiosporin, SEQ ID NO: 6 (protein)
VHH: EVQLLESGGGLVQPGGSLRLSCAASGFRDSDEDMGWVRQAPGKGLEWVSSIYSYNGSTYYADSVKGRFTISRDNSKNTLYLQMNSLRAEDTAVYYCASDRGGYNSFDYWGQGTLVTVSSAAA
B2: AP4: single domain antibody (sdAb) selected against Apiosporin, SEQ ID NO: 21 (protein)
VHH: B1 VHH with Y52D, S53A, Y54E, N55D, R100S, G102D, Y103W, N104F
B3: AP3: single domain antibody (sdAb) selected against Apiosporin, SEQ ID NO: 16 (protein)
VHH: B1 VHH with Y52G, S53G, D99E, R100G, G101Y, G102Y, Y103T, N104S, S105A
B4: AP2: single domain antibody (sdAb) selected against Apiosporin, SEQ ID NO: 11 (protein)
VHH: EVQLLESGGGLVQPGGSLRLSCAASGFRDSDEDMGWVRQAPGKGLEWVSSIETPDGSTYYADSVKGRFTISRDNSKNTLYLQMNSLRAEDTAVYYCASQPVYSYHFDYWGQGTLVTVSSAAA
B5: AP7: single domain antibody (sdAb) selected against Apiosporin, SEQ ID NO: 31 (protein)
VHH: B4 VHH with T53G, D55S, Q99V, P100T, V101W, Y102W, S103T, Y104H, H105P

Experiments:
[1] = system: Apiosporin from a lysate of Apiospora arundinis (Isolate AAU773); experiment: Octet measurement of sdAbs capturing Apiosporin from fungal lysate; assay type: binding
Description: The Aim was to establish that selected antibody fragments could capture their target antigen Apiosporin from a lysate of WT Apiospora arundinis (Isolate AAU773), whereas no antigen would be bound specifically to the antibody fragments when KO Apiospora arundinis were applied in the binding assay.
The sdAbs produced as in example 9 were applied to amine reactive biosensors from Sartorius for the Octet instrument. First the reagents were prepared according to the AR2G kit instructions. For a standard immobilization scouting assay 200 μL/well of water was added to column 1 of a 96-well plate. The 200 μL/well 1 M ethanolamine pH 8.5 were added to column 4. 200 μL/well assay running buffer into column 5. Here the provided Kinetics Buffer (dilute the 10× Kinetics Buffer 10-fold in PBS) was used. 200 μL/well of the sdAbs were added to column 6 at a concentration of 500 nM. The sdAbs were prepared to be immobilized. Protein was prepared in each of the 10 mM acetate buffers at pH 4, 5 and 6. A starting ligand concentration of at least 20 μg/mL is recommended. The ligand concentration may be decreased as low as 5 μg/mL if the immobilization time is extended; some performance loss is expected at lower ligand concentrations. Prepare 500 μL at each pH.
As Apiosporin is present in an unknown concentration in the crude extracts, it is not possible to estimate a Kd from the sensorgram. Also, it is not possible to fit the raw data to a nice binding curve when a ligand concentration is not known. However, in order to allow fitting a concentration of 100 nM and 10 nM (resulting in almost identical fitting curves) of Apiosporin were inserted. The same fitting settings were used for all (data correction aligning to the association step with baseline correction to dissociation, Savitzky-Golay filtering to smoothen the curves, 1:1 model graph fitting to association and dissociation separately). […] It thus establishes that there is a normal association/dissociation between Apiosporin and sdAbs for the WT, but no association/dissociation for the KO as expected. Thus, it is seen that the antibodies are specific against the compound produced from the NRPS.

Apiosporin = experiment: Immunoprecipitation of Apiosporin from fungal extract by sdAbs with mass spec identification; assay type: binding, Apiospora arundinis; conditions: Protein A SpinTrap
Description: 50 μl of the partial pure sdAbs prepared in example 9 and 150 μl fungal extract (resuspended in PBS with 500 mM NaCl and 0.2% Tween20) were incubated overnight at 4° C. The mixed sdAb and fungal extract were purified on a SpinTrap Protein A from Cytivia accoridng to manufactures instructions except that the elution was performed into 50% AcN 5% formic acid.
The same immune precipitations were analysed by HPLC-DAD-HRMS using a Hitachi Elite LaChrom HPLC system, equipped with a phenyl-hexyl 100 Å (150×4.6 mm Kinetex 5 μm, Phenomenex) column kept at 40° C. and coupled by a 5:95 flow splitter to a high-resolution mass spectrometer (compact qTOF, Bruker) with an electrospray source (Capilary: 4500 V; end plate offset 500 V; Dry gas 4.0 L/min, 200° C.) operated in positive mode. The injection volume was set to 30 μL and separated using a 1.2 mL/min gradient initiating at 10% solvent A (acetonitrile (HiPerSolv CHROMANORM, VWR) with 0.1% v/v formic acid (MS-grade 98%, Sigma-Aldrich)) in 90% solvent B (water (HiPerSolv CHROMANORM, VWR) with 0.1% v/v formic acid (MS-grade 98%, Sigma-Aldrich)), increasing linearly to 100% solvent A over 17 minutes and held for 6 minutes. After 0.5 minutes from sample injection, 2 μL calibrant (10 mM NaOH and 26 mM formic acid (MS-grade 98%, Sigma-Aldrich) in 1:1 water (HiPerSolv CHROMANORM, VWR): isopropanol) was injected directly to the mass analyser and used for internal spectra calibration. Mass spectrometric instrument control, data recording and data processing was performed using Compass DataAnalysis 4.2 SR2 (Bruker).

[2] = system: Apiospora arundinis (Isolate AAU773); experiment: Immunofluorescent staining of Apiospora arundinis with sdAbs; assay type: cell-based; conditions: primary sdAb 70 nM, ALFA tag secondary (Alexa 647)
Description: Apiospora arundinis (Isolate AAU773) were grown in liquid culture and spotted on glass cover slips where they were immobilized using tape. The fungi were fixed by addition of 3.7% paraformaldehyde for 10 min. Then blocking with 5% skim milk in PBS before staining with the primary sdAbs (70 nM) overnight, secondary antibody (ALFA sdAb-FluoTag-X2 from Synaptic Systems, the antibody was labelled with Alexa flour 647 and used at a dilution of 1:500 for 3 h, washing 3×5 min with PBS, then staining for 2 min with calcofluor white stain (calcofluor white 1 g/l, evans blue 0.5 g/l), then wash 1×5 min with PBS.

[3] = WT fungal extract, 1:1 model fit, Apiosporin concentration assumed 100 nM

Molecule	Association/dissociation (binding to ligand) on Octet ([1]; KO fungal extract)	Association/dissociation (binding to ligand) on Octet [1, 3]	Immunoprecipitation of Apiosporin, identified by mass spec (Apiosporin)	Immunofluorescent staining of septa ([2]; KO fungi)	Immunofluorescent staining of septa ([2]; WT fungi)
B1	absent in the KO	binding to a ligand present in the WT extracts	identification of Apiosporin after immunoprecipitation	No clearly staining in septa	Staining is clearly shown in septa between two hyphae
B2	absent in the KO	binding to a ligand present in the WT extracts			
B3	absent in the KO	binding to a ligand present in the WT extracts			
B4	absent in the KO	binding to a ligand present in the WT extracts	identification of Apiosporin after immunoprecipitation		
B5			identification of Apiosporin after immunoprecipitation		

— patent publication US20260242430A1, “NOVEL FUNGAL DERIVED COMPOUNDS” (Aalborg Universitet, priority 2023, published 2026)
